# According to patent publication US10704030B2, “P450-BM3 variants with improved activity” (Codexis, Inc., priority 2015, dated 2020):
# Changes are numbered by the printed parent chain. Numbers in names are those of the source.
# B1: Variant 6: P450-BM3 variant of SEQ ID NO: 2: V51S; D118R; L219Y; K236H; P351T; S353T; N579T; T582A; E624D; A632S; D727S; Q931K (protein)
# chain: MLMKQASAIPQPKTYGPLKNLPHLEKEQLSQSLWRIADELGPIFRFDFPGSSSVFVSGHNLVAEVCDEERFDKSIEGALEKVRAFSGDGLATSWTHEPNWRKAHNILMPTFSQRAMKRYHEKMVDIATQLIQKWSRLNPNEEIDVADDMTRLTLDTIGLCGFNYRFNSFYRDQPHPFITSMVRALDEAMNKLQRANPDDPAYDENKRQFQEDIKVMNDYVDSIIAERRANGDQDEHDLLARMLNVEDPETGEKLDDENIRFQIITFLIAGHETTSGLLSFAIYCLLTHPEKLKKAQEEADRVLTDDTPEYKQIQQLKYIRMVLNETLRLYPTAPAFSLYAKEDTVLGGEYTITKGQPVTVLIPKLHRDQNAWGPDAEDFRPERFEDPSSIPHHAYKPFGNGQRACIGMQFALQEATMVLGLVLKHFELINHTGYELKIKEALTIKPDDFKITVKPRKTAAINVQRKEQAEQSAKKVRKKAENAHNTPLLVLYGSNMGTAEGTARDLADIAMSKGFAPQVATLDSHAGNLPREGAVLIVTASYNGHPPDNAKQFVDWLDQASADEVKGVRYSVFGCGDKTWAATYQKVPAFIDETLAAKGAENIADRGEADASDDFEGTYEEWRDHMWSDVASYFNLDIENSEDNKSTLSLQFVDSAADMPLAKMHGAFSTNVVASKELQQPGSARSTRHLEIELPKEASYQEGDHLGVIPRNYEGIVNRVTARFGLSASQQIRLEAEEEKLAHLPLAKTVSVEELLQYVELQDPVTRTQLRAMAAKTVCPPHKVELEALLEKQAYKEQVLAKRLTMLELLEKYPACEMKFSEFIALLPSIRPRYYSISSSPRVDEKQASITVSVVSGEAWSGYGEYKGIASNYLAELQEGDTITCFISTPQSEFTLPKDPETPLIMVGPGTGVAPFRGFVQARKQLKEQGKSLGEAHLYFGCRSPHEDYLYQEELENAQSEGIITLHTAFSRMPNQPKTYVQHVMEQDGKKLIELLDQGAHFYICGDGSQMAPAVEATLMKSYADVHQVSEADARLWLQQLEEKGRYAKDVWAG
# modifications: P450_BM3
# notes: D118R; L219Y; K236H; P351T; S353T; N579T; T582A; E624D; A632S; D727S; Q931K
# B2: Variant 8: P450-BM3 variant of SEQ ID NO: 2: D118R; L219Y; K236H; S353T; N579T; T582A; E624D; D727S (protein)
# chain: B1 chain with S51V, T351P, S632A, K931Q
# modifications: P450_BM3
# notes: L219Y; K236H; S353T; N579T; T582A; E624D; D727S
# B3: Variant 7: P450-BM3 variant of SEQ ID NO: 2: V51S; D118R; T179V; L219Y; P351T; N579T; T582A; E624D; D727S (protein)
# chain: B1 chain with T179V, H236K, T353S, S632A, K931Q
# modifications: P450_BM3
# notes: D118R; T179V; L219Y; P351T; N579T; T582A; E624D; D727S
# B4: SEQ ID NO: 8: P450-BM3 parental backbone from the commercially available MCYP panel (MCYP-0343; Codexis) (protein)
# chain: MTIKEMPQPKTFGELKNLPLLNTDKPVQALMKIADELGEIFKFEAPGRVTRYLSSQRLIKEACDESRFDKNLSQALKFARDFAGDGLFTSWTHEKNWKKAHNILLPSFSQQAMKGYHAMMVDIAVQLVQKWERLNADEYIEVPEDMTRLTLDTIGLCGFNYRFNSFYRDQPHPFIISMIRALDEVMNKLQRANPDDPAYDENKRQFQEDIKVMNDLVDKIIADRKASGEQSDDLLTQMLNGKDPETGEPLDDGNISYQIITFLIAGHETTSGLLSFALYFLVKNPHVLQKVAEEATRVLVDPVPSYKQVKQLKYVGMVLNEALRLWPTAPAFSLYAKEDTVLGGEYPLEKGDEVMVLIPQLHRDKTIWGDDVEEFRPERFENPSAIPQHAFKPFGNGQRACIGQQFALHEATLVLGMMLKHFDFEDHTNYELDIKETLTLKPEGFVVKAKSKKIPLGGIPSPSTEQSAKKVRKKAENAHNTPLLVLYGSNMGTAEGTARDLADIAMSKGFAPQVATLDSHAGNLPREGAVLIVTASYNGHPPDNAKQFVDWLDQASADEVKGVRYSVFGCGDKNWATTYQKVPAFIDETLAAKGAENIADRGEADASDDFEGTYEEWREHMWSDVAAYFNLDIENSEDNKSTLSLQFVDSAADMPLAKMHGAFSTNVVASKELQQPGSARSTRHLEIELPKEASYQEGDHLGVIPRNYEGIVNRVTARFGLDASQQIRLEAEEEKLAHLPLAKTVSVEELLQYVELQDPVTRTQLRAMAAKTVCPPHKVELEALLEKQAYKEQVLAKRLTMLELLEKYPACEMKFSEFIALLPSIRPRYYSISSSPRVDEKQASITVSVVSGEAWSGYGEYKGIASNYLAELQEGDTITCFISTPQSEFTLPKDPETPLIMVGPGTGVAPFRGFVQARKQLKEQGQSLGEAHLYFGCRSPHEDYLYQEELENAQSEGIITLHTAFSRMPNQPKTYVQHVMEQDGKKLIELLDQGAHFYICGDGSQMAPAVEATLMKSYADVHQVSEADARLWLQQLEEKGRYAKDVWAG
# modifications: P450_BM3
# Experiment: Validation of generalist properties: oxidation of diclofenac by lyophilized P450-BM3 variant, UPLC-MS
# Type: biochemical
# Conditions: [Diclofenac] = 1 mM
# Protocol: (§1) For the production of lyophilized protein powders, LB agar plates supplemented with chloramphenicol (30 μg/mL) were streaked with E. coli containing a desired B. megaterium P450-BM3 variant in an IPTG-inducible vector. The plates were grown at 37° C. for 16 hrs before single clones were selected to inoculate a 15 mL Falcon™ tube (Fisher) containing TB media (3 mL) supplemented with chloramphenicol (30 μg/mL). The tube was shaken at 200 rpm, 30° C., and 85% humidity for 20-24 h to grow the cultures to saturation. Then, 2.5 mL of the overnight culture was used to inoculate sterile 1 L flasks containing TB medium (250 mL) supplemented with chloramphenicol (30 μg/mL), trace element solution (as described above), and 0.05 g/L ammonium iron (III) citrate. After being shaken at 250 rpm, 30° C., and 85% humidity to an OD600 of 0.8-1.2, P450 expression was induced by addition of IPTG (500 uM) and the heme precursor 5-aminolevulinic acid (5-ALA) to a final concentration of 500 uM. The cultures were grown for additional 20-24 hours and centrifuged in pre-weighed 250 mL centrifuge bottles for 20 minutes at 4000 rpm, 4° C. The supernatants were discarded, and the centrifuge bottles containing cell pellets were weighed. The pellets were resuspended in 50 mM potassium phosphate buffer with 2 mM DTT, pH 8.0 (5 mL of buffer per gram of cell pellet). The cells were lysed using a microfluidizer homogenizer, and the suspensions of cells and lysate were collected in sterile 50 mL centrifuge tubes. The samples were centrifuged for 30 minutes at 10,000 rpm, 4° C. The clarified lysate was collected into a plastic petri plate and frozen at −80° C. prior to lyophilization. The enzyme-containing lysates were lyophilized using standard methods known in the art.
# (§2) Enzyme stocks (˜12 μM) were prepared by dissolving ˜20 mg of each enzyme in 100 mM potassium phosphate buffer, pH 8.0 (1 mL). The concentration of each enzyme stock solution was determined by the UV-visible absorption spectroscopy (after centrifugation to remove particulates) and diluted to standardize at 12 μM heme protein. Substrate solutions were prepared by dissolving each substrate in DMSO to reach a final concentration of 20 mM or 40 mM. Reaction mix (235 μL) followed by enzyme solution (50 μL) was added to the plates. The substrate stock solution was added to the enzyme solutions (15 μL at the two different concentrations). Each reaction contained 100 mM potassium phosphate, 1.0 mM NADP+, 25 mM glucose, 0.5 mg/mL glucose dehydrogenase, 5% DMSO and substrate at 1 or 2 mM. Loratadine, imatinib, and gefitinib (See, FIG. 1) were selected as substrates in addition to diclofenac to validate improved BM3 variants. The reactions were shaken at 450 rpm at 30° C. over 24 hours. All reactions were diluted with acetonitrile to a final concentration of 0.5 mM substrate. The plates were then centrifuged at 3,000 g for 1 hour at 20° C. The supernatant was diluted 1:1 with acetonitrile, filtered using a 0.4 micron filter, and analyzed by UPLC-MS.
# (§3) For UPLC-MS analysis, the quenched and filtered reactions were transferred to 96-well HTP plates for analysis by UPLC on a Waters Acquity H-class system equipped with an autosampler. 1 uL of quenched sample was injected onto an Acquity UPLC HSS T3 column, 100 Å, (1.8 um; 2.1×100 mm). The column was eluted at a constant flow rate of 0.6 mL/min; conditions with solvent A (0.05% trifluoroacetic acid v/v, in H2O) and solvent B (0.05% trifluoroacetic acid v/v, in acetonitrile) used to elute the products of the reaction were: 0-2 min, A/B 95:5; 2-2.9 min, A/B 5:95; 2.9-3 min, A/B 95:5; 3-3.5 min, A/B 95:5. Column eluent was monitored by PDA (200-600 nm) prior to MS analysis in positive ESI mode (desolvation temperature 350° C., 3.25 kV spray voltage, cone voltage 25V). The column eluent was diverted to waste for the first 0.7 minutes of the run. For the remainder of the LC run, both MS (m/z 95-600 scan range) and MS/MS were collected. […]
row,Molecule,% Conv.
1,B1,++ (5.01-10.00)
2,B2,+ (0-5.00)
3,B3,+ (0-5.00)
4,B4,++ (5.01-10.00)

# Same assay, conditions: [Diclofenac] = 1 mM; TON = [substrate]*% conversion/[P450]
row,Molecule,TON
1,B1,‡‡ (1001-5000)
2,B2,‡‡ (1001-5000)
3,B3,‡‡ (1001-5000)
4,B4,‡‡ (1001-5000)

# Same assay, conditions: [Diclofenac] = 1 mM; fold improvement over parent MCYP-1.2-A05
row,Molecule,FIOPC (A05)
1,B1,**** (10.01-15.00)
2,B2,**** (10.01-15.00)
3,B3,**** (10.01-15.00)

# Experiment: Validation of generalist properties: oxidation of imatinib by lyophilized P450-BM3 variant, UPLC-MS
# Type: biochemical
# Conditions: [Imatinib] = 1 mM
# Protocol: as §1, §2, §3
row,Molecule,% Conv.
1,B1,++++ (15.01-20.00)
2,B2,++++ (15.01-20.00)
3,B3,++ (5.01-10.00)
4,B4,++++ (15.01-20.00)

# Same assay, conditions: [Imatinib] = 1 mM; TON = [substrate]*% conversion/[P450]
row,Molecule,TON
1,B1,‡‡‡‡ (10000-50000)
2,B2,‡‡‡ (5001-10000)
3,B3,‡‡‡‡ (10000-50000)
4,B4,‡‡‡‡ (10000-50000)

# Same assay, conditions: [Imatinib] = 1 mM; fold improvement over parent MCYP-1.2-A05
row,Molecule,FIOPC (A05)
1,B1,* (0.0-3.0)
2,B2,* (0.0-3.0)
3,B3,** (3.01-5.0)

# Experiment: Validation of generalist properties: oxidation of loratadine by lyophilized P450-BM3 variant, UPLC-MS
# Type: biochemical
# Conditions: [Loratadine] = 1 mM
# Protocol: as §1, §2, §3
row,Molecule,% Conv.
1,B1,++ (5.01-10.00)
2,B2,++ (5.01-10.00)
3,B3,++ (5.01-10.00)
4,B4,++ (5.01-10.00)

# Same assay, conditions: [Loratadine] = 1 mM; TON = [substrate]*% conversion/[P450]
row,Molecule,TON
1,B1,‡‡ (1001-5000)
2,B2,‡‡ (1001-5000)
3,B3,‡‡ (1001-5000)
4,B4,‡‡ (1001-5000)

# Same assay, conditions: [Loratadine] = 1 mM; fold improvement over parent MCYP-1.2-A05
row,Molecule,FIOPC (A05)
1,B1,**** (10.01-15.00)
2,B2,**** (10.01-15.00)
3,B3,**** (10.01-15.00)

# Experiment: Validation of generalist properties: oxidation of gefitinib by lyophilized P450-BM3 variant, UPLC-MS
# Type: biochemical
# Conditions: [Gefitinib] = 1 mM
# Protocol: as §1, §2, §3
row,Molecule,% Conv.
1,B1,+ (0-5.00)
2,B2,+ (0-5.00)
3,B3,+ (0-5.00)
4,B4,+ (0-5.00)

# Same assay, conditions: [Gefitinib] = 1 mM; TON = [substrate]*% conversion/[P450]
row,Molecule,TON
1,B1,‡ (0-1000)
2,B2,‡ (0-1000)
3,B3,‡ (0-1000)
4,B4,‡ (0-1000)

# Same assay, conditions: [Gefitinib] = 1 mM; fold improvement over parent MCYP-1.2-A05
row,Molecule,FIOPC (A05)
1,B1,* (0.0-3.0)
2,B2,* (0.0-3.0)
3,B3,* (0.0-3.0)
